Data as given in patent US20080081903A1, “METHOD FOR SCREENING TRANSCRIPTIONAL COREGULATORY PROTEINS OF TRANSCRIPTION FACTORS, AND ANDROGEN RECEPTOR TRANSCRIPTIONAL COREGULATORY PROTEINS AS TARGETS FOR ANDROGEN RECEPTOR-DEPENDENT DISEASES” (NEW YORK UNIVERSITY, priority 2001, published 2008).

Key:
[1] = molecular target: T1, androgen receptor ligand-binding domain (579-901) (Rattus norvegicus, UniProt P15207); assay: Modified yeast two-hybrid specificity panel; settings: absence or presence of hormone
T1 construct: expressed in transfected cells; host or cells: yeast (modified two-hybrid assay)
T1 sequence (P15207 579-901): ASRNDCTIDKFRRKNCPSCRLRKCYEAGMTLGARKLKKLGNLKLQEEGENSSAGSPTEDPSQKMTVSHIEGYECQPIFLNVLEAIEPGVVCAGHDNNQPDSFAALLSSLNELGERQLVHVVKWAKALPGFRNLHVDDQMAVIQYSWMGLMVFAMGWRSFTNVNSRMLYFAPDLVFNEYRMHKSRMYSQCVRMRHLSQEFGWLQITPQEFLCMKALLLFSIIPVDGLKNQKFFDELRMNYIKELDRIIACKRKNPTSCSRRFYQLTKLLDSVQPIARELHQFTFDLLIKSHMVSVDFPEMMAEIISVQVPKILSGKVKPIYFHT

[2] = molecular target: T2, androgen receptor transcriptional activation (Homo sapiens, UniProt P10275); assay: Transient transfection, AR-responsive luciferase reporter assay; type: cell-based; settings: overexpressed in cultured mammalian cells
T2 construct: The pcDNA3:hAR expression plasmid was used to produce full length human AR; expressed in transfected cells; host or cells: HeLa and PC-3 (both AR deficient)
T2 sequence (P10275 1-920): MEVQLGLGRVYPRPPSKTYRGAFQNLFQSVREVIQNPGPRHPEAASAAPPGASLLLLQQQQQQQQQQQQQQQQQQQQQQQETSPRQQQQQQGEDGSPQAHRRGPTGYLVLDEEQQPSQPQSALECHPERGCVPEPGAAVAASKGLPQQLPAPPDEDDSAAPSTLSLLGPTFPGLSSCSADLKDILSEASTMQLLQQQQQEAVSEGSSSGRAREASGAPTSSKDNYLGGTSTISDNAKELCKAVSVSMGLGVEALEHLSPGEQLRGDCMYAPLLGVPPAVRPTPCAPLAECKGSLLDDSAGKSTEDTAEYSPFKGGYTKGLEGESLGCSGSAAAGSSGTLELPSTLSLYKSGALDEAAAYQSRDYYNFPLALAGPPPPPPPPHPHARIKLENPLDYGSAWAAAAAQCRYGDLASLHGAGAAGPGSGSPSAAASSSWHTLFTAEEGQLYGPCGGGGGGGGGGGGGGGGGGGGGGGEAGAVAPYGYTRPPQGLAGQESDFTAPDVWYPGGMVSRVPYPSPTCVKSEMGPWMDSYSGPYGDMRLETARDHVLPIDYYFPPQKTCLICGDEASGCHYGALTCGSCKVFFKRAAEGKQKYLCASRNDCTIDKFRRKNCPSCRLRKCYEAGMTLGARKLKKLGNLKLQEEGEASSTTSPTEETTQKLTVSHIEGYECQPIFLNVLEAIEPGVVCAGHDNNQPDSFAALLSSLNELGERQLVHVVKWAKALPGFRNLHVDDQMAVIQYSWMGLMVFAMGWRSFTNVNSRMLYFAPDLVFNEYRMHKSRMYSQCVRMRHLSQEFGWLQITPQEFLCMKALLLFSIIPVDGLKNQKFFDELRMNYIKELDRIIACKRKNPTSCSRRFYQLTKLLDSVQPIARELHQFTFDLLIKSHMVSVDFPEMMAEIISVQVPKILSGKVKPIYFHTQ
Source text: The two ART-27 derivatives used in the mammalian cell culture experiments were constructed as follows: using EcoRI-XhoI, ART-27 was subcloned from pEG202:ART-27 into a pcDNA3 vector that has an N-terminal HA epitope (pCDNA3-HA) in the same reading frame as the LexA moiety in pEG202 with respect to the EcoRI site; ART-271-127 was subcloned from pEG202:ART-271-127 into pcDNA3-HA, pJG4-5:Sp183-262, pJG4-5:Sp1263-542, pJG4-5:TAF130270-700, and pJG4-5:CREB3-296 were provided by N. Tanese (New York University School of Medicine, New York). pJG4-5:SRC-1374-800 was provided by H. Samuels (New York University School of Medicine, New York). pJG4-5:GR107-237 was previously described (Hittelman et al., 1999). The pJK103 reporter plasmid, which contains a single LexA operator linked to β-galactosidase, was used in all activity assays of the LexA fusion proteins and in the modified two-hybrid assay. The pΔ4X-LALO-luciferase reporter plasmid, which contains four LexA operators upstream of a minimal Drosophila alcohol dehydrogenase promoter linked to luciferase, was used in mammalian activity assays to monitor the intrinsic transcriptional activity of the LexA fusion proteins. […]

interaction with androgen receptor ligand binding domain [1]: No interaction
androgen receptor-dependent transactivation [2]: increase
B1: ART-5: Androgen Receptor Trapped protein, SEQ ID NO:4, unknown function, represented in EST database (protein)
chain: MHNPDGSASPTADPGSELQTLGQAARRPPPPRAGHDAPRRTRPSARKPLSCFSRRPMPTREPPKTRGSRGHLHTHPPGPGPPLQGLAPRGLKTSAPRPPCQPQPGPHKAKTKKIVFEDELLSQALLGAKKPIGAIPKGHKPRPHPVPDYELKYPPVSSERERSRYVAVFQDQYGEFLELQHEVGCAQAKLRQLEALLSSLPPPQSQKEAQVAARVWREFEMKRMDPGFLDKQARCHYLKGKLRHLKTQIQKFDDQGDSEGSVYF
modifications: Human
